Results published in patent US20120135912A1 (PERSEID THERAPEUTICS, published 2012).

Legend:
[1] = target: T1, human VLA4-Fc (alpha4-Fc/beta1-Fc heterodimer) (human); assay: ELISA, VLA4-Fc coated, 1 mM MnCl2; from EC50 values
T1 construct: Soluble heterodimer from CHO cells, Protein A purified; also called VLA-Fc
Procedure: The relative binding affinities of various 2D-VCAM-1 variants to immobilized VLA4-Fc (α4-β1-Fc) heterodimer, relative to a control protein (e.g., Q38L-2D-VCAM-1 or to human 2D-VCAM-1), were deter using a solid-phase ELISA assay. MAXISORP™ ELISA plates (NUNC) were coated overnight at 4° C. with 50 ul VLA4-Fc heterodimer, 2 ug/ml in TBS-M (TBS (25 mM Tris-HCl pH 7.5, 150 mM NaCl) with 1 mM MnCl2), washed with TBS-T (TBS with 0.05% TWEEN-20), blocked with 200 ul 3% milk in TBS-M for 1 h at room temperature, and washed again with TBS-T. A four-fold dilution series of the purified 2D-VCAM variants to be assayed was made in COSTAR U-bottom plates in TBS-TMC (TBS with 0.05% Tween-20, 1 mM MnCl2, and 1% casein; Sigma) with a starting concentration of 8.2 uM (200 ug/ml). The dilution series was transferred into the ELISA plate which was incubated at room temperature for 2 h and subsequently washed with TBS-T. Bound 2D-VCAM protein was detected by incubation with 0.5 ug/ml of biotinylated anti-human VCAM antibody (R&D Systems, Catalog No. BAF809) in TBS-TMC for 1 h at room temperature followed by a TBS-MT (TBS plus 1 mM MnCl2 and 0.02% TWEEN-20) wash and subsequent incubation with 1:2000 dilution of streptavidin-HRP (BD Biosciences, Catalog No. 554066) in TBS-TMC for 30 min at room temperature. […] Typical development times ranged from […] and development was stopped by addition of 50 ul 2M H₂SO₄ (EM, Catalog No. SX1244-75). […] Fold-improvement in binding was calculated relative to a control protein (e.g., Q38L-2D-VCAM-1 or human 2D-VCAM-1) assayed on the same plate.

[2] = target: T2, human LPAM-1-Fc (alpha4-Fc/beta7-Fc heterodimer) (human); assay: ELISA, LPAM-1-Fc coated, 1 mM MnCl2; from EC50 values
T2 construct: Soluble heterodimer from CHO cells, Protein A purified
T2 sequence (chain, as listed by the source limits assumed, chain 1 of 2): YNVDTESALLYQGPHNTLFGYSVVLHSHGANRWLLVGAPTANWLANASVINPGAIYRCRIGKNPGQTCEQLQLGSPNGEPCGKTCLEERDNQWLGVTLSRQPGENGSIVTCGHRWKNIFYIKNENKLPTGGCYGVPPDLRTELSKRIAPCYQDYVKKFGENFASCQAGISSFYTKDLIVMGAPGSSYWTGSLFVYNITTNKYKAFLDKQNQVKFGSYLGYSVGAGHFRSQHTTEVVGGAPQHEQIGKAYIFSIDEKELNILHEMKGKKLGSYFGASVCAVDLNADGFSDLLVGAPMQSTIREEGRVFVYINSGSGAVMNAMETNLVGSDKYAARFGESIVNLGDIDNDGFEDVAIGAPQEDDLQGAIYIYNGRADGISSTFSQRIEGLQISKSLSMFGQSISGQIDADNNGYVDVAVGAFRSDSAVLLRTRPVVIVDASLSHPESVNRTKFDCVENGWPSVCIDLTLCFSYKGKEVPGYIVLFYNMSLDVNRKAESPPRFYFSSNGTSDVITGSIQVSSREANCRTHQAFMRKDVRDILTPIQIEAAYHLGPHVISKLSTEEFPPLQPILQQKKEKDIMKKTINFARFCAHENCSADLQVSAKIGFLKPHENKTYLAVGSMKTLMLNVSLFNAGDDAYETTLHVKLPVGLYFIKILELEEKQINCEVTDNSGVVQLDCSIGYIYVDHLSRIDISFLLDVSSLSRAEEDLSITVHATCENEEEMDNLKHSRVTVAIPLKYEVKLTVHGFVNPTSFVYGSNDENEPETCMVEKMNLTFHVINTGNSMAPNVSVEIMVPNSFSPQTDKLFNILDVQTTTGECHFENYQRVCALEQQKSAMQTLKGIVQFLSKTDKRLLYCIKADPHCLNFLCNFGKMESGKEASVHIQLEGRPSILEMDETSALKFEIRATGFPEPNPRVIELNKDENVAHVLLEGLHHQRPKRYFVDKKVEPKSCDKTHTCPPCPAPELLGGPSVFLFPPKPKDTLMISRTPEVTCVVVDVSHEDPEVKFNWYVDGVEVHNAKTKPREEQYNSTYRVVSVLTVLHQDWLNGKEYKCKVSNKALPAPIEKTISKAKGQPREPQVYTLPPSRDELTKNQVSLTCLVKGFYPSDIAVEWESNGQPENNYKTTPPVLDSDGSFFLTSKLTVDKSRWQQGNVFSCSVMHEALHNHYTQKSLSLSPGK
T2 sequence (chain, as listed by the source limits assumed, chain 2 of 2): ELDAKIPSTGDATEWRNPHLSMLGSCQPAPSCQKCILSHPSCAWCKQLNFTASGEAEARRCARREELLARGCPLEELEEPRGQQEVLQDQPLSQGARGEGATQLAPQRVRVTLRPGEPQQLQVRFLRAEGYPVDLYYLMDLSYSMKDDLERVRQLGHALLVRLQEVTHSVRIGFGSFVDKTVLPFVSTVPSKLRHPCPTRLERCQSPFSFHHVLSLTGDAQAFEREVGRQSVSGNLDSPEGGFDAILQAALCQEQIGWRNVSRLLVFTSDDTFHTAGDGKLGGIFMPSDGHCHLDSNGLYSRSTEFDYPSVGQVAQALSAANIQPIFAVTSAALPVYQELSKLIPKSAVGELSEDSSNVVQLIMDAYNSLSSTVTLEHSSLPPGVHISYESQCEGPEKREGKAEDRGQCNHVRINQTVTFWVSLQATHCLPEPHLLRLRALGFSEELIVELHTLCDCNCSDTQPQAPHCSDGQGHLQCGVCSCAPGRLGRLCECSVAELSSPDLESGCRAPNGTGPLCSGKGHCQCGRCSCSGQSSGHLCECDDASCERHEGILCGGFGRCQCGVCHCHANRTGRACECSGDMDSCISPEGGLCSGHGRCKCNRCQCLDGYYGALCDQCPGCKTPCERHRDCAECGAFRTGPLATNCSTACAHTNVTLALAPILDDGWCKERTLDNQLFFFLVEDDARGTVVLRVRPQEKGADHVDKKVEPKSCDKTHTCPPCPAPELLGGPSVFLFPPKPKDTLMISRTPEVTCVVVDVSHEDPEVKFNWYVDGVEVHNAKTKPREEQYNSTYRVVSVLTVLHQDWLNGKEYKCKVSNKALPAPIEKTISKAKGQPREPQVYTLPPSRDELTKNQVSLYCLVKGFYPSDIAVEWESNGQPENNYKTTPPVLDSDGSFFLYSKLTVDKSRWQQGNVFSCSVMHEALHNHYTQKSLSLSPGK
Procedure: The relative binding affinities of various 2D-VCAM variant proteins to immobilized LPAM-1-Fc (α4-Fc/β-7-Fc) heterodimer, relative to a control protein (e.g., Q38L-2D-VCAM-1 or human 2D-VCAM-1), were determined using a solid-phase ELISA assay. MAXISORP™ ELISA plates (NUNC) were coated overnight at 4° C. with 50 ul LPAM-1-Fc heterodimer (2 ug/ml in TBS-M, TBS (25 mM TRIS-HCl pH 7.5, 150 mM NaCl with 1 mM MnCl2), washed with TBS-T (TBS with 0.05% Tween-20), blocked with 200 ul 3% milk in TBS-M for 1 hr at room temperature, and washed again with TBS-T. A four-fold dilution series of the purified 2D-VCAM-1 variants to he assayed was made in COSTAR U-bottom plates in TBS-TMC (TBS with 0.05% Tween-20, 1 mM MnCl2 and 1% casein; Sigma) with a starting concentration of 8.2 uM (200 ug/ml). The dilution, series were transferred into the ELISA plate which was incubated at room temperature for 2 h and subsequently washed with TBS-T. Bound 2D-VCAM-1 protein was detected by incubation with 0.5 ug/ml of biotinylated anti-human VCAM antibody (R&D Systems, Catalog No. BAF809) in TBS-TMC for 1 h at room temperature followed by a TBS-T wash and subsequent incubation with 1:2000 dilution of streptavidin-HRP (BD Biosciences, Catalog No. 554066) in TBS-TMC for 30 min at room temperature. […] Typical development times ranged from 5-15 min and development was stopped by addition of 50 ul 2M H₂SO₄ (EM, Catalog No. SX1244-75). […] Fold-improvement in binding was calculated relative to a control protein (Q38L-2D-VCAM-1) assayed on the same plate.

[3] = target: T1, human VLA4-Fc (alpha4-Fc/beta1-Fc …); assay: SPR (BIACORE), retest with new polypeptide preparations and new VLA4-Fc
Procedure: (§1) The kinetic 2D-VCAM-1 assay measures binding kinetics of a dimeric ligand (e.g., VLA-Fc fusion protein or LPAM-1-Fc fusion protein) coated to sensor chips and monomeric analyte (e.g., 2D-VCAM-1 variant polypeptides) in the mobile phase. Goat anti-human IgG antibody (Jackson ImmunoResearch, Catalog No. 105-005-098) was immobilized on CM-5 sensor chips (GE Healthcare, Catalog No. BR-1000-14) according to the manufacturer's protocol. Antibody was diluted to 30 μg/ml in immobilization buffer (10 mM sodium acetate, pH 5.0 (GE Healthcare, Catalog No. BR-1003-51)). […] Un-reacted sites were quenched with 35 μl of 1 M ethanolamine-HCl pH 8.5 (GE Healthcare, Catalog No. BR-1000-50). This procedure typically yielded 15,000 response units (RU) of coupled antibody. VLA4-Fc or LPAM-1-Fc, prepared as described in Examples 3 and 4, respectively, were bound to antibody-coated sensor chips by injection of 20 μl of ligand solution (20 μg/ml protein in HBS-P-Mn buffer at a flow rate of 10 μl/min). Ligand capture levels were typically 200-300 RU. 2D-VCAM-1 variant polypeptides were diluted in HBS-P-Mn and flowed over ligand-coated sensor chips for 2 min at 30 μl/min, followed by 5 min incubation with in HBS-P-Mn containing no protein at the same flow rate. For 2D-VCAM-1 variant polypeptides having very slow dissociation rates from VLA4-Fc or LPAM-1-Fc, kinetic assays were also conducted using longer dissociation times (e.g., 20 min). Rmax signal levels for 2D-VCAM-1 variant polypeptides ranged from approximately 5-25 RU. Regeneration between cycles was performed by 200 sec incubation with 10 mM glycine buffer (pH 1.7) at 50 μl/min. New chips were subjected to 4-5 cycles of capture/binding/regeneration prior to use in actual experiments. Data from a reference cell containing goat anti-human IgG capture antibody alone was subtracted from data obtained from flow cells containing captured VLA4-Fc or LPAM-1-Fc. Typically, 8 dilutions of 2D-VCAM-1 variant polypeptides ranging from 150 nM to 0.069 nM were analyzed against a blank reference (HBS-P-Mn buffer alone).

[4] = target: T1, human VLA4-Fc (alpha4-Fc/beta1-Fc …); assay: SPR (BIACORE), VLA4-Fc captured by anti-human IgG, 1 mM MnCl2, 1:1 Langmuir
Procedure: as §1

T1 sequence (chain, as listed by the source limits assumed, form in doubt, chain 1 of 2): as the sequence (chain, as listed by the source limits assumed, chain 1 of 2) above
T1 sequence (chain, as listed by the source limits assumed, form in doubt, chain 2 of 2): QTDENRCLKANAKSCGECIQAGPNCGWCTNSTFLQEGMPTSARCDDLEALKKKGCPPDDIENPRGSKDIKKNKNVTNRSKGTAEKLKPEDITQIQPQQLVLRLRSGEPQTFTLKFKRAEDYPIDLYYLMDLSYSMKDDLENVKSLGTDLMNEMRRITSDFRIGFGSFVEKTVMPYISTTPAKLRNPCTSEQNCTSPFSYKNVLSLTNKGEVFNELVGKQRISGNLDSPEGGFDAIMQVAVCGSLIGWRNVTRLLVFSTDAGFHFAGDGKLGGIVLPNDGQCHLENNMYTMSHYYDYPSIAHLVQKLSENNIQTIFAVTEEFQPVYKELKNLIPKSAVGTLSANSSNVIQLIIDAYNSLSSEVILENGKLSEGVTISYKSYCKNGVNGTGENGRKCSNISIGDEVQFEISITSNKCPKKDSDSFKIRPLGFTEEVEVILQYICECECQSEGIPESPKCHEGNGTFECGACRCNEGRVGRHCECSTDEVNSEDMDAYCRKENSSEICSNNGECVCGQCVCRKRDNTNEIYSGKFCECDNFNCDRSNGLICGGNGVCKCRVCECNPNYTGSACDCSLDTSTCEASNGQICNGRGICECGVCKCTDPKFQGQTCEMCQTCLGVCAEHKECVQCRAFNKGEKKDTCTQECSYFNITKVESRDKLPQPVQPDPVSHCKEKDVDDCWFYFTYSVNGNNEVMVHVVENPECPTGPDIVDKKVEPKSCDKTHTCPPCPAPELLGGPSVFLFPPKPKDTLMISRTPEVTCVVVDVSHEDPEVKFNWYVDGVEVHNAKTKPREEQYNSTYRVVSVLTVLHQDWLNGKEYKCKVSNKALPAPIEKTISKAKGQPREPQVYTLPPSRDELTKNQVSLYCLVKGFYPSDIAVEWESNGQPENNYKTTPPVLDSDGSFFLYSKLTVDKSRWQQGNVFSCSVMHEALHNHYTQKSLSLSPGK

| Binder | fold-improvement in binding relative to Q38L-2D-VCAM-1 [1] | fold-improvement in binding relative to human 2D-VCAM-1 [1] | fold improvement in binding relative to Q38L-2D-VCAM-1 [2] | Kd [3] | Kd [4] | binding affinity for VLA4-Fc relative to human 2D-VCAM-1 [4] |
| --- | --- | --- | --- | --- | --- | --- |
| 2D-VCAM-1 variant Clone 46 (ligand, also called Clone 046; not shown: His tag) FKIETTPESRYLAQIGDSVSLTCSTTGCESPFFSWRPQLDAPLNGKVTNEGTTSTLTMNPVSFGNEHSYLCTATCESRKLEKGIQVEIYSFPKDPEIHLSGPLEAGKPITVKCSVADVYPFDRLEIDLLKGDHLMKSQEFLEDADRKSLETKSLEVTFTPVIEDIGKVLVCRAKLHIDEMDSVPTVRQAVKELQVYISP | 21 fold | 172 fold | 1 fold | 1950 pM | 123 pM | 124 fold |
| 2D-VCAM-1 variant Clone 47 (ligand, also called Clone 047; not shown: His tag) FKIETTPESRYLAQIGDSVSLTCSTTGCESPFFSWRPLLDSPLNGKVTNEGTTSTLTMNPVSFGNEHSYLCTATCESRKLEKGIQVEIYSFPKDPEIHLSGPLEAGKPITVKCSVADVYPFDRLEIDLLKGDHLMKSQEFLEDADRKSLETKSLEVTFTPVIEDIGKVLVCRAKLHIDEMDSVPTVRQAVKELQVYISP | 16 fold | 128 fold | 17 fold | 680 pM | 148 pM | 103 fold |
| 2D-VCAM-1 variant Clone 59 (ligand, also called Clone 059; not shown: His tag) FKIETTPESRYLAQIGDSVSLTCSTTGCESPFFSWRPLLDSPLNGKVTNEGTTSTLTMNPVSFGNEHSYLCTATCESRKLEKGIQVEIYSFPKDPEIHLSGPLEAGKPITVKCSVADVYPFDRLEIDLLKGDHLMKSQEFFEDAAWKSLETKSLEVTFTPVIEDIGKVLVCRAKLHIDEMDSVPTVRQAVKELQVYISP | 34 fold | 272 fold | 80 fold | 95 pM | 50.1 pM | 303 fold |
| 2D-VCAM-1 variant Clone 146 (ligand, not shown: small tags and cut ends) FKIETTPESRYLAQIGDSVSLTCSTTGCESPLFFWRPLLDSPLNGKVTNEGTTSTLTMNPVSFGNEHSYLCTARCESRSLEKGIQVEIYSFPKDPEIHLSGPLEAGKPITVKCSVADVYPFDRLEIDLLKGDHLMKSQEFLEDADRKSLETKSLEVTFTPVIEDIGKVLVCRAKLHIDEMDSVPTVRQAVKELQVYISP | – | – | 74 fold | – | – | – |
| Q38L-2D-VCAM-1 (ligand, also called Q38L 2D-VCAM-1 polypeptide; not shown: His tag) FKIETTPESRYLAQIGDSVSLTCSTTGCESPFFSWRTLIDSPLNGKVTNEGTTSTLTMNPVSFGNEHSYLCTATCESRKLEKGIQVEIYSFPKDPEIHLSGPLEAGKPITVKCSVADVYPFDRLEIDLLKGDHLMKSQEFLEDADRKSLETKSLEVTFTPVIEDIGKVLVCRAKLHIDEMDSVPTVRQAVKELQVYISP | 1 fold | 8 fold | 1 fold | – | 1870 pM | 8 fold |
